From patent US20210388105A1 (ELPISCIENCE SUZHOU BIOPHARMA, published 2021)

T1: kw27 (Intracellular C-terminal EGFP fusion, left out of the letters)
T1 construct: not shown: C-terminal EGFP (GFPSpark) reporter of vector pCMV3-GFPSpark and any linker to it
T1 chain: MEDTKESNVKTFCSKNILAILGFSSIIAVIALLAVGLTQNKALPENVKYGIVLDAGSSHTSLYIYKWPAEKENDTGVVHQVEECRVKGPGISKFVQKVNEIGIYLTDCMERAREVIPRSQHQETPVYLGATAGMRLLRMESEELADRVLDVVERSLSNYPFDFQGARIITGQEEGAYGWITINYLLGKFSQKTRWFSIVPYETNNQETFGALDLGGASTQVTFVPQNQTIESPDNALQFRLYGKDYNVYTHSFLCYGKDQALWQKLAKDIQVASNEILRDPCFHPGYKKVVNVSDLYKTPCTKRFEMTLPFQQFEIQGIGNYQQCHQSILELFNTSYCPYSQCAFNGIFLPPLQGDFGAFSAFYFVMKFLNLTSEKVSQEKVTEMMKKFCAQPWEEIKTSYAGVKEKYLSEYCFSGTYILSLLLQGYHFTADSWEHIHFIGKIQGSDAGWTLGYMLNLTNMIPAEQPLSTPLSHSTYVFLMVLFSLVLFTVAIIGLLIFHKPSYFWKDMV

T2: KW27-6 (human CD39 mutant, C-terminal EGFP) (human, UniProt P49961 1-510)
T2 construct: expressed on HEK293F cells; not shown: C-terminal EGFP fusion (vector pCMV3-GFPSpark)
T2 chain: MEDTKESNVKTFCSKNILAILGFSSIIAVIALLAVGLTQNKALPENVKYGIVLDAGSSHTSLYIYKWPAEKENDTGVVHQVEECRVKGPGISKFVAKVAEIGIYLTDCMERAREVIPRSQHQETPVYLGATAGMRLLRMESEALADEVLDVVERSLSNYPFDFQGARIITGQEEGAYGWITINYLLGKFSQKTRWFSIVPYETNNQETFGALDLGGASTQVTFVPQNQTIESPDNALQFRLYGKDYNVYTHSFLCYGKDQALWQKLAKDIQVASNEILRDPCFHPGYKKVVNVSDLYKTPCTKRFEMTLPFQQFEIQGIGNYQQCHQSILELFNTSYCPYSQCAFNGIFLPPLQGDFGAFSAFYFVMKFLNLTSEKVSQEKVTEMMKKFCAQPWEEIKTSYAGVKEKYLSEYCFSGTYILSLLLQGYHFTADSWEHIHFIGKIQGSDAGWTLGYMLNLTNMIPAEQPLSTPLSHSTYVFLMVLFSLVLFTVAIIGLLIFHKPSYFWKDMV

T3: KW27-3 (human CD39 mutant, C-terminal EGFP) (human, UniProt P49961 1-510)
T3 construct: expressed on HEK293F cells; not shown: C-terminal EGFP fusion (vector pCMV3-GFPSpark)
T3 chain: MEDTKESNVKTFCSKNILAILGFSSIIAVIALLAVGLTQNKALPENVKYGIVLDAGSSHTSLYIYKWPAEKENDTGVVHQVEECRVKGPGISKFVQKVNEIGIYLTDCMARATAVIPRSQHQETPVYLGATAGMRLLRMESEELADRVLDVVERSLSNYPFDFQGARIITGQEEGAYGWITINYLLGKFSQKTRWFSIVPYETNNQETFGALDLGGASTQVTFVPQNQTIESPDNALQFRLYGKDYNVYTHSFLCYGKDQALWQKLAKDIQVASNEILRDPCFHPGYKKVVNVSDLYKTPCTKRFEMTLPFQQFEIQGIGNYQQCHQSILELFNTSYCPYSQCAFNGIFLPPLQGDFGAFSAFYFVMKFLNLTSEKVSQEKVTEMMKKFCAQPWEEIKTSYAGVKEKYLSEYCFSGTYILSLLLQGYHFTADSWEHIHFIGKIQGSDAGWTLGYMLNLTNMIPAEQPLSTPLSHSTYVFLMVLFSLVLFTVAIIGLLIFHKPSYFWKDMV

T4: KW27-20 (human CD39 mutant, C-terminal EGFP) (human, UniProt P49961 1-510)
T4 construct: expressed on HEK293F cells; not shown: C-terminal EGFP fusion (vector pCMV3-GFPSpark)
T4 chain: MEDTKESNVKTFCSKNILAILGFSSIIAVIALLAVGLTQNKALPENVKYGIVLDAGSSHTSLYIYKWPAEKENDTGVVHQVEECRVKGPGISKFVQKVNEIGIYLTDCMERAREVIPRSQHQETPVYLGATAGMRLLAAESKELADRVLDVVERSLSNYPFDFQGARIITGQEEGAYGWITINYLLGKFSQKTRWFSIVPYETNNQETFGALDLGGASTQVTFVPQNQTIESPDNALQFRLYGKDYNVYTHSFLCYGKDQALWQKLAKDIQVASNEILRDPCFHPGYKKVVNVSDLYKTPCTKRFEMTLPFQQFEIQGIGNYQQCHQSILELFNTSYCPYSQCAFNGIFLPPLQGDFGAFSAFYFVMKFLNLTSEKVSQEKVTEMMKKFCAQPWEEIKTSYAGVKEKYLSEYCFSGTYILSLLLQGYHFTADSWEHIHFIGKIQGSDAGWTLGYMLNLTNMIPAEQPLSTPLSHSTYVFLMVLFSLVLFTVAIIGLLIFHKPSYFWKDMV


Tests used:
kw27 = molecular target: T1, kw27; assay: FACS on transfected HEK293F cells, relative binding = AlexaFluor647 / GFP
Protocol: (§1) Briefly, the human CD39 mutants were generated by gene synthesis and then cloned into an expression vector pCMV3-GFPSpark. The vectors containing the validated mutated sequences were prepared and transfected into HEK293F cells. Three days post transfection, the cells were collected to testing EGFP for transgene expression. A range of dosages of antibodies (start from 100 nM, 3-folds dilution, 11 points) were tested on the 20 generated mutants and stained by AlexFluor647 labelled anti-hIgG by FACS. Antibody binding was descripted as relative binding which is derived from AlexFluor647 intensity divided by GFP intensity.

[1] = molecular target: T2, KW27-6 (human CD39 mutant, C-terminal …); assay: as above
Protocol: as §1

[2] = molecular target: T3, KW27-3 (human CD39 mutant, C-terminal …); assay: FACS, mutant-EGFP on HEK293F cells
In short: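 HEK293F cells were transfected with human CD39 mutants carrying C-terminal GFP and used 3 days later. Antibodies were titrated from 100 nM (3-fold, 11 points) and detected by FACS with AlexaFluor647 anti-hIgG. Relative binding was AlexaFluor647 intensity divided by GFP intensity.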

[3] = molecular target: T4, KW27-20 (human CD39 mutant, C-terminal …); assay: FACS on transfected HEK293F cells, relative binding = AlexaFluor647 / GFP
Protocol: as §1

| binding result (kw27) | binding result [1] | binding result [2] | binding result [3] | Binder |
| --- | --- | --- | --- | --- |
| binds | binds | binds | binds | c35 (antibody, V domains shown, its making is not described; also called chimeric antibody c35) VH: EVRLQQSGAELVKPGASVKLSCTASGFNIEDTYVHWMKQRPEQGLEWIGRIDPAIDNSKYDPKFQGKATITAVSSSNTAYLQLSSLTSEDTAVYYCALYDGYNVYAMDYWGQGTSVTVSS VL: DIVMTQAAFSNPVTLGTSASISCRSSKNLLHSNGITYLYWYLQRPGQSPQLLIYRASTLASGVPNRFSGSESGTDFTLRISRVEAEDVGVYYCAQLLELPHTFGGGTKLEIK |
| binds | binds | binds | no binding | Antibody T895 (antibody, V domains shown, also called 31895) VH: EVQLQQSGPELVKPGASVKMSCKASGYTFTDYNMHWVKQSHGRTLEWIGYIVPLNGGSTFNQKFKGRATLTVNTSSRTAYMELRSLTSEDSAAYYCARGGTRFAYWGQGTLVTVSA VL: not shown |

Continued, binder first:

| Binder | binding result (kw27) | binding result [1] | binding result [2] | binding result [3] |
| --- | --- | --- | --- | --- |
| hu23.H5L5 (antibody, V domains shown, humanized c23) VH: QVQLVQSGAEVKKPGASVKVSCKASGYNLKDTFLHWVRQAPGQGLEWMGRIDPANGNIKYDPKFQGRVTITADTSANTAYMELISLRSEDTAVYYCANSPYYYGSGYRIFDVWGQGTTVTVSS VL: QIVLTQSPATLSLSPGERATLSCSAFSSVNYMHWYQQKPGQAPRLLIYTTSNLASGIPTRFSGSGSGTSYTLTISSLEPEDFAVYYCQQRSTYPFTFGQGTKLEIK | binds | no binding | binds |  |
| Antibody 9-8B (antibody, V domains shown) VH: QIQLVQSGPELKKPGETVKISCKASGYTFTHYGMNWVKQAPGKGLKWMGWINTYTGELTYADDFKGRFAFSLETSASTAYLQINNLKNEDTATYFCARRAYYRYDYVMDYWGQGTSVTVSS VL: DIVMTQSQKFMSTSVGDRVSVTCKASHNVGTNVAWYQQKPGQSPKALIYSASYRYSGVPGRFTGSGSGTDFTLTISNVQSEDLAEYFCHQYNNYPYTFGGGTKLEIK | binds | no binding | binds | binds |
| c34 (antibody, V domains shown, its making is not described; also called chimeric antibody c34) VH: EIQVQQSGPELVKPGASVKVSCKASGYSFTDYNMYWVKQSHGKSLEWIGFIDPYNGYTSYNQKFKGKATLTIDKSSSTAFMHLNSLTSEDSAVYYCAIYGYDDAYYFDYWGQGTTLTVSS VL: QIVLTQSPAIMSASPGEKVTITCSATSSVSYMHWFRQKPGTSPKLWIYSTSNLASGVPARFSGSGSGTSYSLTISRMAAEDAATYYCQQRITYPFTFGSGTKLEIT | binds | binds | binds | binds |
